Laboratory results: article PMC3444475
Read-outs that look alike come from different tables or passages of the source. Each block holds one substance with its values, some of them ahead of it.

What was measured:
α5β1 integrin = α5β1 integrin (UniProt P08648); test: optical biosensor (IAsys); α5β1 integrin immobilised; free LG3 at 3.1×10^−8 M to 3.1×10^−7 M, D3904A DV at 8.0×10^−8 M to 4.0×10^−7 M; global fitting; Kd calculated as koff/kon
[1] = target: integrin α5β1 (Homo sapiens) (UniProt P08648); conditions: cited from earlier work
[2] = target: integrin α2β1 α2 ligand binding domain (Homo sapiens) (UniProt P17301); conditions: cited from earlier work
[3] = target: integrin α2β1 α2 ligand binding domain (Homo sapiens) (UniProt P17301); conditions: cited from earlier work; remark: listed apart in the source

α5β1 integrin, sequence (P08648 42-1049, chain 1 of 2): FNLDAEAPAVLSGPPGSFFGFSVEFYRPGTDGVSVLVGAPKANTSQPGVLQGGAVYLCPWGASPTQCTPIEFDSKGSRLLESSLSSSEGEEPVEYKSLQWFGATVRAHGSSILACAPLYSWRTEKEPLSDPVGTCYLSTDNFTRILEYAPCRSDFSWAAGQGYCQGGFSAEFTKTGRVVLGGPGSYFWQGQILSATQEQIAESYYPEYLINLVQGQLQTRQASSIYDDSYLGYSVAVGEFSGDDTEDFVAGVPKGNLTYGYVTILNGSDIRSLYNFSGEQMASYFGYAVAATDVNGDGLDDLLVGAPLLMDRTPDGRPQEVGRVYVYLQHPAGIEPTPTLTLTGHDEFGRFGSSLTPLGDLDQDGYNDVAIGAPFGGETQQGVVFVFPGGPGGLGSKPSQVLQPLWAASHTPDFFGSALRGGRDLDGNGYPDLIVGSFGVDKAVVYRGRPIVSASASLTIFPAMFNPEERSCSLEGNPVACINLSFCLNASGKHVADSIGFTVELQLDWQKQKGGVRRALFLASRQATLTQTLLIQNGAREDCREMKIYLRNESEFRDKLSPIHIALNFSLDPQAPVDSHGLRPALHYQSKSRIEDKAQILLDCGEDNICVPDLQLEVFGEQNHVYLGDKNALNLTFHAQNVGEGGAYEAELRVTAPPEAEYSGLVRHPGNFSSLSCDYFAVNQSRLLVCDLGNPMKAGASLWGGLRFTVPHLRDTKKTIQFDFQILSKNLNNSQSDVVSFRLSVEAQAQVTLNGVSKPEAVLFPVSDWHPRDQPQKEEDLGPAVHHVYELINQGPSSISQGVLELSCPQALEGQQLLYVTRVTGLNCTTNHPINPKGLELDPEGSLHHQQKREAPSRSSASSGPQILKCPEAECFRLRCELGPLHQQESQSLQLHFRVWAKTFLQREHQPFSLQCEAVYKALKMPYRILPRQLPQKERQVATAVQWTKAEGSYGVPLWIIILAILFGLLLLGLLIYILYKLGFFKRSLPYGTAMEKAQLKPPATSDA
α5β1 integrin, sequence (P05556 21-798, chain 2 of 2, further chain): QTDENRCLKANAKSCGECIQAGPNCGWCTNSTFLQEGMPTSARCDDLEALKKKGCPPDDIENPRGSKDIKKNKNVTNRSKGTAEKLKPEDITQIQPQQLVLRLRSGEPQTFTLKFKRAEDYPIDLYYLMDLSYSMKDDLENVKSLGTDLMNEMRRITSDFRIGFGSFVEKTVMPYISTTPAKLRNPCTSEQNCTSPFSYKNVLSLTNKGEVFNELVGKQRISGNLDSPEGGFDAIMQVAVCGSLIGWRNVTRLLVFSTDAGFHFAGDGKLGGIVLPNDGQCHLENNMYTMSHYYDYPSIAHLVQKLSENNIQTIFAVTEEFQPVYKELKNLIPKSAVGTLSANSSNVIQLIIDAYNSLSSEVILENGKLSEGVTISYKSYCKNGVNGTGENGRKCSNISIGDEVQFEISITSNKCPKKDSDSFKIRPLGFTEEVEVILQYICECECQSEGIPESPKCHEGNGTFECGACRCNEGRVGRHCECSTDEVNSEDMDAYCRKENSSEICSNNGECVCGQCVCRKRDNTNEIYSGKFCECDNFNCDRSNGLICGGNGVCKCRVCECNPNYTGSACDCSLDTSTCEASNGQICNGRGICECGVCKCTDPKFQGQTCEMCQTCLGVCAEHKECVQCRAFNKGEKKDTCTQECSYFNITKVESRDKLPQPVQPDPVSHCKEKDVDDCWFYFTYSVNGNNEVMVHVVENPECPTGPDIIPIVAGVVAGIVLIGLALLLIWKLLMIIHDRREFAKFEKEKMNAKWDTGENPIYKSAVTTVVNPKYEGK
Perlecan domain V Domain V, sequence (P98160 3687-4391): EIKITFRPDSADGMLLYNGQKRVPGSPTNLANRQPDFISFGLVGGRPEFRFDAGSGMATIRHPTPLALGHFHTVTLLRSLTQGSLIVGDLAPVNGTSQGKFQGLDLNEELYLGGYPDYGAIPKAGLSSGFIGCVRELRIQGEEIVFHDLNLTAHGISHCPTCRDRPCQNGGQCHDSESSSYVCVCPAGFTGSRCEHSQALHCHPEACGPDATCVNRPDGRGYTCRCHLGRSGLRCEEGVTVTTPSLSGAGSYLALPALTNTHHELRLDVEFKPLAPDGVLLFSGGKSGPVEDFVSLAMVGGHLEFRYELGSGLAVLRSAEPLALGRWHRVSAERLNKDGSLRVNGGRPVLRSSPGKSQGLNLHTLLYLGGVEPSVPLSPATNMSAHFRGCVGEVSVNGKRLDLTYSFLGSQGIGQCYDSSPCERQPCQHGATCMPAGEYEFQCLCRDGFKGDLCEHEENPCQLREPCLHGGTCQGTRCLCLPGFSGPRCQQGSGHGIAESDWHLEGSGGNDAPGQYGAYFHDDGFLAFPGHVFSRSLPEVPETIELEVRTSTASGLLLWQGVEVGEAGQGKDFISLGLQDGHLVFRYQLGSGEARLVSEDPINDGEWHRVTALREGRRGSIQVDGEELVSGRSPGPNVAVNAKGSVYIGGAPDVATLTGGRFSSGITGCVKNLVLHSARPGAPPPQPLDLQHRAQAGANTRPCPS
integrin α2β1 α2 ligand binding domain (Homo sapiens), sequence (P17301 30-1132, chain 1 of 2): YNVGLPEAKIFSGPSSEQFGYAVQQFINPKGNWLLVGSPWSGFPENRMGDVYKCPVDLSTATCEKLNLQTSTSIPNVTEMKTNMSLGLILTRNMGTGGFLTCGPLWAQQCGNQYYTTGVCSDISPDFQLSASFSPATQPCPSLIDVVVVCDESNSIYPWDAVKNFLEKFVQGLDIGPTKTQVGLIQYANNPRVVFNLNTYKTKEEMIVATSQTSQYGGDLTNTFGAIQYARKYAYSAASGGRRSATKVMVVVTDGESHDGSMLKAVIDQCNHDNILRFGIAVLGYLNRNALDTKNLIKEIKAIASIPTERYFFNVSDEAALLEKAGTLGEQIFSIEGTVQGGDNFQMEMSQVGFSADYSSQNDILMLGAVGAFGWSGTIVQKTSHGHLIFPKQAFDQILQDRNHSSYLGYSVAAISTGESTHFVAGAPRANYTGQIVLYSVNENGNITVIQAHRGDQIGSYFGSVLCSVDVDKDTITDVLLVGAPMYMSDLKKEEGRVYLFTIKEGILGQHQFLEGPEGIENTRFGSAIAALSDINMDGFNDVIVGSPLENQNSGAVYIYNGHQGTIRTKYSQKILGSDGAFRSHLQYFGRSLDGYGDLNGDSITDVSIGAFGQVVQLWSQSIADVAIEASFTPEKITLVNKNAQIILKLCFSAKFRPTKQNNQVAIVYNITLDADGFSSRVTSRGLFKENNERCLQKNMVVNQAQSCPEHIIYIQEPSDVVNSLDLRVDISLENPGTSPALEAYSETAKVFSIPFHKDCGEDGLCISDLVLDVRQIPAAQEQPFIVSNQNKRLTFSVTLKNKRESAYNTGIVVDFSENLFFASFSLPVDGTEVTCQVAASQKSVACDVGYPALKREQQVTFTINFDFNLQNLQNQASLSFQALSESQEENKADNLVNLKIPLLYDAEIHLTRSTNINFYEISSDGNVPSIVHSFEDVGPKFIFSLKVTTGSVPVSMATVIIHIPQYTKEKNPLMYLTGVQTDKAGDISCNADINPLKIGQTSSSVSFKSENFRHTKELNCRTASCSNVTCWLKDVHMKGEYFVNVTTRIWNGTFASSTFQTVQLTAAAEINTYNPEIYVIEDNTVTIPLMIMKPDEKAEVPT
integrin α2β1 α2 ligand binding domain (Homo sapiens), sequence (P05556 21-728, chain 2 of 2, further chain): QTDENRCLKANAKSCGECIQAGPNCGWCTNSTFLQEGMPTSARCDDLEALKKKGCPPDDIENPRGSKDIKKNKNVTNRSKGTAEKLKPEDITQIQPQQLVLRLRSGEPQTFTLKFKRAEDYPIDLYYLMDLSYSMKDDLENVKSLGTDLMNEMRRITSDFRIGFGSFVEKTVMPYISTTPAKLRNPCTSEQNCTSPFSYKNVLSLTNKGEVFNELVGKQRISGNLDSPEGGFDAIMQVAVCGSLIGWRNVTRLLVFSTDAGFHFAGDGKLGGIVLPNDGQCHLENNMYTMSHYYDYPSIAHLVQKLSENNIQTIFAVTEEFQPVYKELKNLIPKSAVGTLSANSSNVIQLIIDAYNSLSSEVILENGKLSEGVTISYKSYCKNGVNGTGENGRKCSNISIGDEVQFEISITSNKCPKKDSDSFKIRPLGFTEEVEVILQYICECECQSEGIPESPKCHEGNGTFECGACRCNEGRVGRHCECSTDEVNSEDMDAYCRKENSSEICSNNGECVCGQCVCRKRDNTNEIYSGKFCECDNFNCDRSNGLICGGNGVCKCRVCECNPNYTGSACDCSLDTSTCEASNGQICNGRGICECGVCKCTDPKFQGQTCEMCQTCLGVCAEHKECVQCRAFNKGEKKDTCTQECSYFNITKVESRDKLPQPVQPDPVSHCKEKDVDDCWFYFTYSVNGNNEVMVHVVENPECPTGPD
Perlecan LG3 LG3, sequence (P98160 4194-4391): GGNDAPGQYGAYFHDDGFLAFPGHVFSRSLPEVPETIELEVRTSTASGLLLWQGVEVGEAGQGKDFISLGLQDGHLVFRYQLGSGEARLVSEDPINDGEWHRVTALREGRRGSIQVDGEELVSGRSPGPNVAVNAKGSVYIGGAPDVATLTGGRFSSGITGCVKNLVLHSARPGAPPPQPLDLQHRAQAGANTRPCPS

- Kd (α5β1 integrin): 370 nM
- koff (α5β1 integrin): 0.22 s⁻¹
- kon (α5β1 integrin): 600000 M⁻¹ s⁻¹
Substance: D3904A DV (perlecan Domain V with A in place of the D of its DGR sequence) (domain or fragment; other documents disagree on this pair)

Substance: Perlecan domain V Domain V (from UniProt P98160)
- Kd [1]: 160 nM
- Kd [2]: 80 nM

Substance: Perlecan LG3 LG3 (from UniProt P98160)
- Kd [3]: 1000 nM
